The test concerns the target T1, human serum albumin (human, UniProt P02768 25-609).
T1 construct: also called HSA; rHSA
The test can be described thus: confocal/deconvolution microscopy; S. aureus ATCC 700699 pretreated with HSA 40 mg/mL, CF-301^RHD at 0.25×MIC.

These results are taken from patent US20220023399A1 (CONTRAFECT, published 2022).

T1 sequence (P02768 25-609): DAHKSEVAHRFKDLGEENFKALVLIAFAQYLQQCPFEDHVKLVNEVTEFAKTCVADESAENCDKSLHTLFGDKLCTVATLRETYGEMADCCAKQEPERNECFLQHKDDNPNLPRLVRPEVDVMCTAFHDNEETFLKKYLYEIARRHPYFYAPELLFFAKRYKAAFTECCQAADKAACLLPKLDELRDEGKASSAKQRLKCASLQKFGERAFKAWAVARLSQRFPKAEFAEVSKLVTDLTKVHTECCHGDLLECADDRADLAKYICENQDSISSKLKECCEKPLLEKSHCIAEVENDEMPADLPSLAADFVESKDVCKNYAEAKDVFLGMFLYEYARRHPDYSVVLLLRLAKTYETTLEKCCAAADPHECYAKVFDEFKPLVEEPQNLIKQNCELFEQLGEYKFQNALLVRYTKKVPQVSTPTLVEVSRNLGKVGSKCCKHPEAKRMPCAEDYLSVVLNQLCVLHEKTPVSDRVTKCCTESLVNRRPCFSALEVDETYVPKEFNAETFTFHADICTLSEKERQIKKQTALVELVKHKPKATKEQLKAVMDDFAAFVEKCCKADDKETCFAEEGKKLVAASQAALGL

B1: rhodamine-labeled PlySs2 (CF-301) (enzyme)
chain: MTTVNEALNNVRAQVGSGVSVGNGECYALASWYERMISPDATVGLGAGVGWVSGAIGDTISAKNIGSSYNWQANGWTVSTSGPFKAGQIVTLGATPGNPYGHVVIVEAVDGDRLTILEQNYGGKRYPVRNYYSAASYRQQVVHYITPPGTVAQSAPNLAGSRSYRETGTMTVTVDALNVRRAPNTSGEIVAVYKRGESFDYDTVIIDVNGYVWVSYIGGSGKRNYVATGATKDGKRFGNAWGTFK
notes: also called CF-301^RHD; CF-301^RHOD
In the case of B1, the binding result is “binds”.
